These results are taken from paper doi:10.1101/515924 (bioRxiv, 2019).

The target of the experiment is His×6-Okp1 (budding yeast, UniProt P53298 1-406). The experiment can be described thus: pull-down.
His×6-Okp1, sequence (P53298 whole entry): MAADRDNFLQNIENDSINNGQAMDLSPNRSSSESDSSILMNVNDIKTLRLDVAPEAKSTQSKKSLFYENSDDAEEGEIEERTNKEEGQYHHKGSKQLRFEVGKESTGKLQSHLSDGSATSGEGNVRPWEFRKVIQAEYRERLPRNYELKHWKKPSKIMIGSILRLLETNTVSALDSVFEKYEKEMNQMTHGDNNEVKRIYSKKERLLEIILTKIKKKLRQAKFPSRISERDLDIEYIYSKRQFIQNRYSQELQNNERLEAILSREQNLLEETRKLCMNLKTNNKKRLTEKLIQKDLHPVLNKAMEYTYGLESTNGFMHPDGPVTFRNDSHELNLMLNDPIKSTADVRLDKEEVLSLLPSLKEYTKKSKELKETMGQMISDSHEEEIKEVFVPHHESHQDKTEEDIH

B1: GST-Sli15 (1-401) (domain or fragment)
chain: MDWAIKAARKKTQRKPGSTRSIIETLDDLNNLTTDAHSEINQRLYESSEWLRNNVYMNTLKYEDKKMEESLISPENTHNKMDVEFPKMKGEYELSNSQNDAAKDVTKTPRNGLHNDKSITPKSLRRKEVTEGMNRFSIHDTNKSPVEPLNSVKVDANESEKSSPWSPYKVEKVLRESSKTSESPINTKRFDNQTWAAKEEMENEPILQALKKAESVKVKPPPNSGIARSQRRSNMFVPLPNKDPLIIQHIPPTKSSGSIPKVRTVKESPIAFKKKSTINSPAIRAVENSDTAGSTKASSVFDRLSSIPTKSFENKISRGNVGHKYSSSSIDLTGSPMKKVSQKFKSINSTDTDMQEALRDIFSVKNKITKNNSPKGKNSRKSSIPRFDKTSLKLTTHKKLA
On to B1, for which the binding result is on record as “binds”.
